T1: RsbW1 (MSMEG_1803), purified from E. coli (pT7-7rsbW1) (M. smegmatis, UniProt A0QTD7 1-138)
T1 construct: Anti-sigma factor RsbW1 of Mycobacterium smegmatis, locus MSMEG_1803, 138 amino acids; also called purified RsbW1; source: E. coli BL21 (DE3) with pT7-7rsbW1, purified (Ni-Sepharose)
T1 sequence (looked up): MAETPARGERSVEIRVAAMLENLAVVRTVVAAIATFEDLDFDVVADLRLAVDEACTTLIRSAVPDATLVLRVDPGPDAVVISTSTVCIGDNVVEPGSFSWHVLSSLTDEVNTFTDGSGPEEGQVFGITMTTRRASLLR

B1: C-terminally His6-tagged WT RsfB (MSMEG_6127) purified from E. coli (natural protein, M. smegmatis, UniProt A0R5B0 1-119, looked up)
chain: MTSQDPANCTVEERRVGDITVVAVTGTVDMLTAPKLEDAIGSAAKSEPSAVVVDLSAVDFLASAGMGVLVAAHGELAPAVRLVVVADGPATSRPLKLVGIADVVDLFATLDEALSSLKT
notes: Anti-SigF antagonist RsfB of Mycobacterium smegmatis, locus MSMEG_6127; unphosphorylated when made in E. coli; also called RsfB-His6; source: E. coli BL21 (DE3) with pT7-7rsfB, purified (Ni-Sepharose twice, PD-10 desalting)

How the values were obtained:
[1] = target: RsbW1 (MSMEG_1803), purified from E. coli (pT7-7rsbW1) (M. smegmatis) (UniProt A0QTD7); assay: native gel or EMSA; non-denaturing PAGE, CBB stain; 160 pmol RsbW1 mixed with increasing amounts of WT, S63A or S63E RsfB in binding buffer [40 mM Tris-HCl (pH 8.0), 0.01 mM EDTA, 10 mM MgCl2, 20% (v/v) glycerol], 30 min at 25°C
[2] = target: T1, RsbW1 (MSMEG_1803), purified from E. …; assay: as above; details: both partners purified

| Molecule | stoichiometry N [1] | stoichiometry N [2] |
| --- | --- | --- |
| C-terminally His6-tagged S63A RsfB purified from E. coli (natural protein) | 1 |  |
| B1 |  | 1 |

From paper PMC7693655, “The Partner Switching System of the SigF Sigma Factor in Mycobacterium smegmatis and Induction of the SigF Regulon Under Respiration-Inhibitory Conditions” (Frontiers in Microbiology, 2020)
